From US20120316071A1 (published 2012)
Blank lines part the entries; values can stand above or below the binder they belong to.

Key:
[1] = biological target: T1, rHuman EGF R/Fc Chimera, CF (R&D Systems Cat#344-ER) (human, UniProt P00533 25-645); assay: Multispot ECL (MSD), antigen spotted on plate, Fab 0.25 uM; blank spot 6344
T1 construct: Bought recombinant protein; also called epidermal growth factor receptor (EGF R); Fc part of the bought chimera not given

[2] = biological target: T2, rHuman IGF-1 sR, CF (R&D Systems Cat#391-GR) (human, UniProt P08069 31-932); assay: as above
T2 construct: Bought recombinant soluble receptor; also called insulin-like growth factor-1 soluble receptor

[3] = biological target: T3, rHuman Erythropoietin R/Fc Chimera, CF (R&D Systems Cat#963-ER) (human, UniProt P19235 25-250); assay: as above
T3 construct: Bought recombinant protein; also called EPO R/Fc; Epo R; Fc part of the bought chimera not given
T3 sequence (looked up): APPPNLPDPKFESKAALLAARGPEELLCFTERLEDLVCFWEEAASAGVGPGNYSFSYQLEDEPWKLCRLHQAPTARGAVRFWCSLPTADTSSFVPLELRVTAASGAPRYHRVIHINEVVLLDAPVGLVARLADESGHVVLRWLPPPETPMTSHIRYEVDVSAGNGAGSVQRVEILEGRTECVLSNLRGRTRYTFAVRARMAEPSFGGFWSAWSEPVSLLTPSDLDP

[4] = biological target: T1, rHuman EGF R/Fc Chimera, CF (R&D …); assay: Multispot ECL (MSD), antigen spotted on plate, Fab 0.0625 uM; blank spot 1738
[5] = biological target: T2, rHuman IGF-1 sR, CF (R&D Systems …); assay: as above
[6] = biological target: T3, rHuman Erythropoietin R/Fc Chimera, CF …; assay: as above
[7] = biological target: T1, rHuman EGF R/Fc Chimera, CF (R&D …); assay: Multispot ECL (MSD), antigen spotted on plate, Fab 0.00391 uM; blank spot 576
[8] = biological target: T2, rHuman IGF-1 sR, CF (R&D Systems …); assay: as above
[9] = biological target: T3, rHuman Erythropoietin R/Fc Chimera, CF …; assay: as above
[10] = biological target: T1, rHuman EGF R/Fc Chimera, CF (R&D …); assay: Multispot ECL (MSD), antigen spotted on plate, Fab 0.01563 uM; blank spot 906
[11] = biological target: T2, rHuman IGF-1 sR, CF (R&D Systems …); assay: as above
[12] = biological target: T3, rHuman Erythropoietin R/Fc Chimera, CF …; assay: as above
[13] = biological target: T4, rHuman HGF R/c-MET/Fc Chimera, CF (R&D Systems Cat#358-MT/CF) (human, UniProt P08581 25-932); assay: ECL multispot (MSD) assay, antigen spotted on plate, 20 nM Fab;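 further: purified Fab bound to plate-spotted antigen for 1 h at 20 °C, labelled detection antibody added, ratio of antigen ECL signal to same-well blank, ratio ≥4 counted as binder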
T4 construct: Bought recombinant protein; also called HGF R/Fc; hepatocyte growth factor receptor; Fc part of the bought chimera not given

[14] = biological target: T5, Recombinant Human DLL4 (R&D Systems Cat#1506-D4/CF) (human, UniProt Q9NR61 27-524); assay: as above
T5 construct: Bought recombinant protein; also called delta-like protein 4; rHuman DLL4

[15] = biological target: T6, rHuman EGF R/Fc Chimera, CF (R&D Systems Cat#344-ER) (human, UniProt P00533 25-645); assay: as above
T6 construct: Bought recombinant protein; also called epidermal growth factor receptor; Fc part of the bought chimera not given

[16] = biological target: T7, rHuman IGF-1 sR, CF (R&D Systems Cat#391-GR) (human, UniProt P08069 31-932); assay: as above
T7 construct: Bought soluble receptor; also called insulin-like growth factor-1 soluble receptor

[17] = biological target: T8, rHuman CD44/Fc Chimera, CF (R&D Systems Cat#3660-CD) (human, UniProt P16070 21-220); assay: as above
T8 construct: Bought recombinant protein; Fc part of the bought chimera not given

[18] = biological target: T9, rHuman P-Cadherin/Fc Chimera, CF (R&D Systems Cat#861-PC) (human, UniProt P22223 108-654); assay: as above
T9 construct: Bought recombinant protein; Fc part of the bought chimera not given

[19] = biological target: T10, rHuman Notch-1/Fc Chimera, CF (R&D Systems Cat#3647-TK) (human, UniProt P46531 19-526); assay: as above
T10 construct: Bought recombinant protein; Fc part of the bought chimera not given

[20] = biological target: T11, rHuman ErbB2/Fc Chimera, CF (R&D Systems Cat#1129-ER) (human, UniProt P04626 23-652); assay: as above
T11 construct: Bought recombinant protein; also called human epidermal growth factor 2 receptor; Fc part of the bought chimera not given

[21] = biological target: T12, rHuman Erythropoietin R/Fc Chimera, CF (R&D Systems Cat#963-ER) (human, UniProt P19235 25-250); assay: as above
T12 construct: Bought recombinant protein; also called EPO R; EPO R/Fc; Fc part of the bought chimera not given
T12 sequence (looked up): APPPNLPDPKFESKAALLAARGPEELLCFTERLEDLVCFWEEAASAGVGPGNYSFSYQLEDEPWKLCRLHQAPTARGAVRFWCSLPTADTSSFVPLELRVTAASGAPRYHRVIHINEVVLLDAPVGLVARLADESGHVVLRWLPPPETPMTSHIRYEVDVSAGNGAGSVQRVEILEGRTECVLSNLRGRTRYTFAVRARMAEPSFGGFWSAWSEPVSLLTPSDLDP

T4 sequence (P08581 25-932, change not shown): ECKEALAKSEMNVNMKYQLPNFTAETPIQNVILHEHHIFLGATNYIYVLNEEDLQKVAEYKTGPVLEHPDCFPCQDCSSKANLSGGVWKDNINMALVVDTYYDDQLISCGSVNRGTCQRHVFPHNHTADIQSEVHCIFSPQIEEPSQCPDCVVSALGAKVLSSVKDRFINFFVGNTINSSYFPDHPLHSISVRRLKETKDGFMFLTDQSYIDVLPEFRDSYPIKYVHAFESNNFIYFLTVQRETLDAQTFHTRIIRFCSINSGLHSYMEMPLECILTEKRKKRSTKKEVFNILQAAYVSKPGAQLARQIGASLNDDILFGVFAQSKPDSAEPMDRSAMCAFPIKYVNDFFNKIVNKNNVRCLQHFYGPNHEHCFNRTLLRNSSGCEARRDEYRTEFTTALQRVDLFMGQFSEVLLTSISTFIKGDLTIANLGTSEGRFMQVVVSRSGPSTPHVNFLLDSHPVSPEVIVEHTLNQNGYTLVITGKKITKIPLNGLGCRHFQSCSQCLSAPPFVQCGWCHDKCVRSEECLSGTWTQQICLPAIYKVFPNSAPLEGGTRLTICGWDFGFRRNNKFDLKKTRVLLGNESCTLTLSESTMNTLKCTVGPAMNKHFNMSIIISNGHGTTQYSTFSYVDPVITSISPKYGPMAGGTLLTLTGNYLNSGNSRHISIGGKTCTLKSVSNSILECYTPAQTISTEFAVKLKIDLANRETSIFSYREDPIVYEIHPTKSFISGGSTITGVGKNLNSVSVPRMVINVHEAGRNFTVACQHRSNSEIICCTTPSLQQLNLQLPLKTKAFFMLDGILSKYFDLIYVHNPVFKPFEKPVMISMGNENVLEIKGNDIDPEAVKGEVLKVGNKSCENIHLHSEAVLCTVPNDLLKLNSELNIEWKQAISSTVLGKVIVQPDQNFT

ECL signal [1]: 117000
ECL signal [2]: 11000
ECL signal [3]: 49200
ECL signal [4]: 94800
ECL signal [5]: 3150
ECL signal [6]: 21100
ECL signal [7]: 35900
ECL signal [8]: 822
ECL signal [9]: 5020
ECL signal [10]: 70800
ECL signal [11]: 1740
ECL signal [12]: 11300
B1: Fab VH1-46_IGHD2-15*01_IGHJ2*01 & L2_IGKJ1*01 (Fab, V domains shown)
VH: QVQLVQSGAEVKKPGASVKVSCKASGYTFTSYYMHWVRQAPGQGLEWMGIINPSGGSTSYAQKFQGRVTMTRDTSTSTVYMELSSLRSEDTAVYYCAREGYCSGGSCYSYWYFDLWGRGTLVTVSS
VL: not shown
notes: Germline library Fab made in E. coli; VH was cloned into Plasmid A (heavy chain constant region CH1, His6 and Flag tags) and the kappa VL into Plasmid C (kappa CL)

ECL signal/blank ratio (read-out not given) [13]: 3.3
ECL signal/blank ratio (read-out not given) [14]: 2.8
ECL signal/blank ratio (read-out not given) [15]: 1.4
ECL signal/blank ratio (read-out not given) [16]: 1.3
ECL signal/blank ratio (read-out not given) [17]: 1.4
ECL signal/blank ratio (read-out not given) [18]: 2.4
ECL signal/blank ratio (read-out not given) [19]: 2.1
ECL signal/blank ratio (read-out not given) [20]: 1.6
ECL signal/blank ratio (read-out not given) [21]: 2.5
B2: Fab VH3-23_IGHD2-21*01>3_IGHJ6*01 H100E/S108P/Y113G Y59A & V2-13_IGLJ2*01 (Fab, V domains shown)
VH: EVQLLESGGGLVQPGGSLRLSCAASGFTFSSYAMSWVRQAPGKGLEWVSSISGSGGSTAYADSVKGRFTISRDNSKNTLYLQMNSLRAEDTAVYYCAKEEIVVVIAIPYYYYGYGMDVWGQGTLVTVSS
VL: SSELTQDPAVSVALGQTVRITCQGDSLRSYYASWYQQKPGQAPVLVIYGKNNRPSGIPDRFSGSSSGNTASLTITGAQAEDEADYYCNSRDSSGNHLVVFGGGTKLTVL
notes: Tested as a Fab made in E. coli; also called EPG Y59A
